According to PMC8567202, “Phosphoinositide-binding activity of Smad2 is essential for its function in TGF-β signaling” (The Journal of Biological Chemistry, 2021):
Substitutions are numbered along the chain they refer to. Names and notes keep the numbering of the source. Read-outs that look alike come from different tables or passages of the source.

B1: Smad2-E425K: charge-reversal mutant of full-length Smad2; PI(4,5)P2 and TβRI binding-enhanced (protein)
chain: MSSILPFTPPVVKRLLGWKKSAGGSGGAGGGEQNGQEEKWCEKAVKSLVKKLKKTGRLDELEKAITTQNCNTKCVTIPSTCSEIWGLSTANTVDQWDTTGLYSFSEQTRSLDGRLQVSHRKGLPHVIYCRLWRWPDLHSHHELKAIENCEYAFNLKKDEVCVNPYHYQRVETPVLPPVLVPRHTEILTELPPLDDYTHSIPENTNFPAGIEPQSNYIPETPPPGYISEDGETSDQQLNQSMDTGSPAELSPTTLSPVNHSLDLQPVTYSEPAFWCSIAYYELNQRVGETFHASQPSLTVDGFTDPSNSERFCLGLLSNVNRNATVEMTRRHIGRGVRLYYIGGEVFAECLSDSAIFVQSPNCNQRYGWHPATVCKIPPGCNLKIFNNQEFAALLAQSVNQGFEAVYQLTRMCTIRMSFVKGWGAKYRRQTVTSTPCWIELHLNGPLQWLDKVLTQMGSPSVRCSSMS
modifications: left off: His6, N-terminal, state not stated
B2: Smad2 WT: bacterially expressed full-length Smad2 wild-type (protein)
chain: B1 chain with K425E
modifications: left off: His6, N-terminal, state not stated
notes: bacterially expressed full-length Smad2 wild-type

Legend:
HeLa cells = test: Nuclear translocation of EGFP-Smad2; format: cell-based
Experimental: Two separate gels were used to accommodate all mutants. An empty vector transfection (vehicle) was used for a negative control for each gel. Glyceraldehyde 3-phosphate dehydrogenase (GAPDH) was used as a gel loading control. Data in A and B are quantified in Fig. S3A. C, TGF-β stimulated (10 ng/ml for 1 h) nuclear translocation of mouse EGFP-WT, -K420A, -W422A, -E425K, -Y426A, and -R427A/R428A transfected into HeLa cells whose endogenous Smad2 was suppressed by siRNA. For Smad2-WT, the effect of PI(4,5)P2 depletion was measured. Arrows indicate nuclear accumulation of EGFP-WT and EGFP-E425K. Scale bars indicate 10 μm. D, quantification of (C). (Inuc/Icyto) was calculated from total nuclear and cytosolic fluorescence intensity values. Blank and black bars indicate values before and after TGF-β stimulation. Error bars indicate S.D. values from >3 measurements (n = 10). E, Smad2 transcriptional activity measured by the luciferase assay. Blank and black bars indicate values before and after TGF-β stimulation. Error bars indicate S.D. values from >3 measurements (n = 10).
The ratio of nuclear to cytoplasmic protein was calculated from the fluorescence intensity of nucleus (Inuc) and the cytoplasm (Fcyto) in cross-section images of cells using the line profile function of Image-Pro Plus software (Media Cybernetics). Briefly, at least five different lines were drawn across the cross-sectional image of each cell and the average Inuc and ICyto values were calculated along the lines. Typically, more than ten cell images were analyzed for each data set to determine the average and SD values.

[1] = test system: TβRI L45 loop region peptide (F-Ahx-ADNKDNGT); test: Fluorescence anisotropy binding to TβRI L45 peptide; settings: for Kd: 20 mM Tris, pH 7.9, 160 mM NaCl, 10-min incubation, average ±S.D., n = 3
Excerpt: (§1) However, this tentative assignment has been confirmed neither by a high-resolution structure of the Smad2-TβRI complex nor by a quantitative and systematic binding study, leaving uncertainty about the exact nature of the Smad2-TβRI-binding interface. Since the L3 loop is a part of the newly identified PI(4,5)P2-binding site, we checked if these PI(4,5)P2-binding residues are also involved in the Smad2-TβRI interaction using two fluorescein-labeled synthetic peptides derived from the GS region (i.e., GS peptide: fluorescein-aminohexanoyl (F-Ahx)-YDMTTpSGpSGpSGLPLL) and the L45 loop (i.e., L45 peptide: F-Ahx-ADNKDNGT), respectively. In particular, the GS peptide represents the GS motif triply phosphorylated by TβRII. We then measured binding to Smad2 WT and mutants to these peptides by fluorescence anisotropy according to our established protocol ([21]). […] We thus primarily used the GS peptide to assess the effects of mutations on the Smad2-TβRI interaction. […] They also yielded distinct structural variants for further functional studies. Specifically, W422A and Y426A could serve as specific PI(4,5)P2 binding-compromised mutants and K420A as a predominantly TβRI binding-compromised mutant. R427A/R428A could also serve as a PI(4,5)P2 and TβRI binding-compromised mutant, whereas E425K as a PI(4,5)P2 and TβRI binding-enhanced mutant.
(§2) Figure 3 Affinity of Smad2 WT and mutants for TβRI-derived peptides determined by fluorescence anisotropy.A, binding of Smad2 WT (black), W422A (red), Y420A (cyan), R427A/R428A (green), K420A (blue), and E425K (orange) to the GS peptide (F-Ahx-YDMTTpSGpSGpSGLPLL). […] B, binding of Smad2 WT (black), W422A (red), Y420A (cyan), R427A/R428A (green), K420A (blue), and E425K (orange) to the L45 loop peptide (F-Ahx-DNKDNGT). C, effects of 50 μM POPC/POPS/PI(4,5)P2 (77:20:3) LUVs on binding of Smad2 to the GS peptide. The presence of vesicles (orange) raises the Kd value from 20 ± 6 to 60 ± 7 nM. The peptide concentration was fixed at 2.5 nM, and the Smad2 concentration was varied from 0 to 150 μM. The experimentally observed anisotropy (A) values were normalized (Anorm) using the equation: Anorm = (A − Amin)/(Amax − Amin) where Amax and Amin are maximal and minimal A values, respectively, for each measurement. The plots of Anormversus [Smad2] were analyzed by the nonlinear least-squares analysis using the equation: Anorm = 1/(1 + Kd/[Smad2]).
(§3) The fluorescein-6-aminohexanoyl (F-Ahx)-labeled TβRI GS region peptide (F-Ahx-YDMTTpSGpSGpSGLPLL) was dissolved in dimethyl sulfoxide to yield 1 mg/ml stock solution, F-Ahx-labeled TβRI L45 loop region peptide (F-Ahx-ADNKDNGT) was dissolved in a 3:1 mixture of water and acetonitrile to yield 2.5 mg/ml stock solution. Both peptide solutions were diluted to 1 to 10 μM with 20 mM Tris buffer, pH 7.9, containing 160 mM NaCl for binding studies. In total, 300 μl of the Smad2 (WT or mutant) solution (0–250 μM) was added to a series of 1.5 ml microcentrifuge containing the peptide solution (2.5 μM). After 10-min incubation in the dark, the mixture was transferred to a quartz cuvette with 2-mm path length and fluorescence anisotropy (r) was measured with excitation and emission wavelengths set at 485 and 535 nm, respectively, using Horiba Flurolog-3 spectrofluorometer. Since Po >> Pepo under our conditions, the Kd for the Smad2-peptide binding was determined by the nonlinear least-squares analysis of the binding isotherm using the Equation 1:(1) Pepbound/Pep0=Δr/Δrmax=1/1+kd/P0 where Pepbound, Pep0, and P0 indicate the concentration of bound peptide, total peptide, and total Smad2, respectively, and Δr and Δrmax are the anisotropy change for each P0 and the maximal Δr, respectively.

[2] = test system: TβRI GS region peptide (F-Ahx-YDMTTpSGpSGpSGLPLL); test: Fluorescence anisotropy binding to TβRI GS peptide
Excerpt: as §1, §2, §3

[3] = fluorescence anisotropy, 20 mM Tris, pH 7.9, 160 mM NaCl, 10-min incubation, average ±S.D., n = 3, read-out: Kd for peptide binding, GS peptide

Molecule | nuclear transport after TGF-β stimulation (HeLa cells; HeLa cells with endogenous Smad2 suppressed, 10 ng/ml TGF-β for 1 h) | L45 peptide affinity relative to WT [1] | Kd [1] [µM] | GS peptide affinity relative to WT ([2]; fluorescence anisotropy) | Kd [2, 3] [µM] | nuclear transport after PI(4,5)P2 depletion (HeLa cells; HeLa cells, PI(4,5)P2 depletion, TGF-β 10 ng/ml for 1 h) | effect of PI(4,5)P2 LUVs on binding to the GS peptide ([2]; 50 μM POPC/POPS/PI(4,5)P2 (77:20:3) LUVs) | binding to GS peptide relative to L45 peptide ([2]; fluorescence anisotropy, Kd comparison) [times] | Kd ([2]; with 50 μM POPC/POPS/PI(4,5)P2 (77:20:3) LUVs, fluorescence anisotropy, Smad2 0 to 150 μM, read-out: Kd, GS peptide, in the presence of vesicles) [µM] | Kd ([2]; without LUVs, fluorescence anisotropy, Smad2 0 to 150 μM, read-out: Kd, GS peptide, without vesicles) [µM]
B1 | excessively transported to the nucleus | slightly higher affinity | 55 ± 3 | twofold higher affinity | 8 ± 0.8 |  |  |  |  | 
B2 |  |  | 66 ± 4 |  | 20 ± 6 | abrogated the nuclear transport of Smad2 WT | significantly interfered with binding of Smad2 to the GS peptide | 3.3 | 0.06 ± 0.007 | 0.02 ± 0.006
